Entries after “also recorded” stand apart in the source; their conditions may differ.

For one assay, the system named is Msgn1RepV mouse ES cells. Put plainly: Msgn1RepV reporter mouse ES cell differentiation, YFP+ (iPAM) cells by flow cytometry. In kind it is cell-based. Particulars: for effect on number of YFP+ cells (iPAM induction): 4 days of differentiation. The procedure:
Undifferentiated mouse ES cells […] derived) were maintained on gelatin-coated dishes in DMEM supplemented with 15% fetal bovine serum (FBS; from PAA), penicillin, streptomycin, 2 mM L-Glutamine, 0.1 mM non essential amino acids, 1 mM sodium pyruvate, 0.2% β-mercaptoethanol and 1,500 U/mL LIF. ES cells were co-cultured with mytomicin-inactivated MEFs (feeders). Undifferentiated human ES cells were cultured on plates coated with matrigel (BD Biosciences) in mTeSR medium ([…] Technologies). Cultures were maintained in an incubator in 5% CO2 at 37° C. ES cells were trypsinized and plated at various densities in gelatin coated, feeder-free, 24 well plates directly in serum-based (15% FBS) or serum-replacement (15% KSR, Invitrogen) conditions supplemented with factors, and DMSO (Sigma). Recombinant proteins were obtained commercially (R&D) and stock solutions were prepared according to manufacturer's recommendation. The GSK-3ß inhibitor CHIR99021 and the BMP type I receptors inhibitor Dorsomorphin were purchased from Stemgent and prepared according to the manufacturer's recommendations. Fluorescent reporter analysis and image acquisition were done on a Zeiss Axiovert system. Cell cultures were dissociated by trypsinization, analyzed by flow cytometry on a FACScalibur (BD Biosciences) according to YFP expression. Data were further analyzed with MoFlo software (Beckman Coulter) and FlowJo software. In order to optimize the differentiation conditions for paraxial mesoderm progenitors, we developed a manual screening assay, testing candidate growth factors and drugs interfering with various signaling pathways on ES cells. The […] reporter cells were plated at a defined density in 24-well plates coated with gelatin (0.1%). Two basal culture media were selected: a DMEM based medium containing 15% fetal bovine serum (FBS, high serum) and a defined serum-free medium containing 15% KSR (Invitrogen/Gibco). These basal media were supplemented with candidate factors on day 0 of differentiation. Control and experimental conditions were cultured in parallel. Cells were left to differentiate for three to four days with medium changed on day 2 or 3. Cell cultures were analyzed on day 3 and 4 of differentiation visually and by flow cytometry for YFP+ population quantification.
In general terms: Flow cytometry measures light scatter and fluorescence of single cells or particles in a stream.

The test system of another assay is BMP4. Put plainly: BMP4 and PSM marker expression in Msgn1-YFP+ cells (microarray, qRT-PCR). Particulars: for iPAM maturation, PSM specific marker expression: added to differentiation medium. In kind it is cell-based, mouse. The procedure: Mouse E9.5 embryo PSMs were microdissected and processed as previously described (Krol et al, 2011), and prepared samples were run on Affymetrix GeneChip arrays. For differentiated cell cultures, iPAMs were sorted by flow-cytometry based on their Msgn1-YFP+ expression, and samples were prepared for microarrays. Experiments were conducted on biological triplicates. Datasets were processed using Affymetrix Microarray Suite (MAS) 5.0. Total RNA was extracted from ES cell cultures using Trizol (Invitrogen) or with the […] plus mini-kit (Qiagen). RT-PCR was performed on 5 ng total RNA using QuantiFast SYBR Green RT-PCR Kit (Qiagen), appropriate primers and run on a LightCycler 480II (Roche). GAPDH was used as the internal control. To counteract this BMP4 activity, we tested the effect of addition of recombinant Noggin (Nog) protein known to inhibit BMP4, to the differentiation medium. […] We further defined both the optimal concentration and timing of Noggin addition. […] To better characterize the impact of Noggin on Msgn1-YFP+ cells, we performed microarrays on the Msgn1-YFP+ induced paraxial mesoderm progenitors (iPAM) population at day 3 and 4 of differentiation (FIG. 11, compare conditions RDN and RD). We screened a set of BMP inhibitors, including recombinant proteins Noggin (Nog), Chordin (Chd), Chordin-like 1 (Chdl1), Follistatin (Fst), Follistatin-like 1 (Fstl1), Dan family protein including Cerberus 1 (Cerberus) and Gremlin 1 (Grem1); at varying concentration range (10-200 ng/mL), and various time-window (day 0-4, day 1-4) and analyzed the impact on BMP4 and the PSM marker Tbx6 expression. Additionally, we tested the chemical compound Dorsomorphin (Compound C), a specific BMP type I receptor inhibitor, at various concentration (0.1-1 μM) and various time-window (day 0-4, day 1-4).
Background: Real-time PCR tracks product formation cycle by cycle.

In another assay the test system is HUES1 cells. Put plainly: qRT-PCR of paraxial mesoderm progenitor markers in differentiating human ES cells. In kind it is cell-based. Conditions: 15% FBS containing medium, 3 to 10 days of culture. As to the method: Comparison of the expression of paraxial mesoderm progenitor markers Brachyury (A), PDGFRa (B), Tbx6 (C), Msgn1 (D) measured by Q RT-PCR in HUES1 undifferentiated or cultured in 15% FBS containing medium with or without Rspo3 for up to 10 days. Relative expression to undifferentiated HUES1 cells is shown (fold induction).
Total RNA was extracted from ES cell cultures using Trizol (Invitrogen) or with the Rnaeasy plus mini-kit (Qiagen). RT-PCR was performed on 5 ng total RNA using QuantiFast SYBR Green RT-PCR Kit (Qiagen), appropriate primers and run on a LightCycler 480II (Roche). GAPDH was used as the internal control.
Next, to confirm that R-spondin also induces paraxial mesoderm progenitors (iPAM) cells from human ES cells differentiation, HUES1 cells were plated as single cells and differentiated in 15% FBS containing medium with or without Rspo3. qRT-PCR time course analysis for paraxial mesoderm progenitor markers expression was performed (FIG. 10).

Another assay deals with canonical Wnt signaling. As to the kind of experiment: BAT-luc luciferase reporter for canonical Wnt signaling in ES cells. In kind it is cell-based, mouse. Conditions: Rspo3 10 ng/mL, 1% FBS medium.

As for `Cc1c[nH]c(-c2cnc(NCCNc3ccc(C#N)cn3)nc2-c2ccc(Cl)cc2Cl)n1` [CHIR99021, reference compound], the “effect on number of YFP+ cells (iPAM induction)” value (“effect on number of YFP+ cells” below) with Msgn1RepV mouse ES cells (15% FBS medium) is recorded as “as efficient as Rspo-3”.
Still for that read-out and setting: with `C[S+](C)[O-]` [DMSO, Dimethyl sulfoxide, reference compound] the entry was “increase of YFP+ cells”.
Turning to `c1cc(-c2cnn3cc(-c4ccc(OCCN5CCCCC5)cc4)cnc23)ccn1` [Dorsomorphin, 6-[4-(2-Piperidin-1-yl-ethoxy)phenyl]-3-pyridin-4-yl-pyrazolo [1,5-a]pyrimidine, reference compound], the “iPAM maturation, PSM specific marker expression” value (from here on “iPAM maturation”) with BMP4 is recorded as “promoting induced paraxial mesoderm progenitors (iPAM) maturation”.

B1: R-spondin2: secreted protein of the R-spondin family that activates the Wnt signaling pathway; recombinant (protein, UniProt Q6UXX9 22-243, looked up)
R-spondin-2: QGNRWRRSKRASYVSNPICKGCLSCSKDNGCSRCQQKLFFFLRREGMRQYGECLHSCPSGYYGHRAPDMNRCARCRIENCDSCFSKDFCTKCKVGFYLHRGRCFDECPDGFAPLEETMECVEGCEVGHWSEWGTCSRNNRTCGFKWGLETRTRQIVKKPVKDTILCPTIAESRRCKMTMRHCPGGKRTPKAKEKRNKKKKRKLIERAQEQHSVFLATDRANQ
Consider B1, for which, in the assay with Msgn1RepV mouse ES cells (15% FBS medium), the “effect on number of YFP+ cells” value is “significantly increase the number of YFP+ cells”.

B2: Dkk1: secreted extracellular Wnt antagonist, canonical Wnt inhibitor (protein, UniProt O94907 32-266, looked up)
Dickkopf-related protein 1: TLNSVLNSNAIKNLPPPLGGAAGHPGSAVSAAPGILYPGGNKYQTIDNYQPYPCAEDEECGTDEYCASPTRGGDAGVQICLACRKRRKRCMRHAMCCPGNYCKNGICVSSDQNHFRGEIEETITESFGNDHSTLDGYSRRTTLSSKMYHTKGQEGSVCLRSSDCASGLCCARHFWSKICKPVLKEGQVCTKHRRKGSHGLEIFQRCYCGEGLSCRIQKDHHQASNSSRLHTCQRH
For the molecule B2, the “effect on number of YFP+ cells” value with Msgn1RepV mouse ES cells (15% FBS medium) was “sharp decrease of YFP+ induction”.

B3: Noggin: recombinant protein known to inhibit BMP4 (protein, UniProt Q13253 28-232, looked up)
Noggin: QHYLHIRPAPSDNLPLVDLIEHPDPIFDPKEKDLNETLLRSLLGGHYDPGFMATSPPEDRPGGGGGAAGGAEDLAELDQLLRQRPSGAMPSEIKGLEFSEGLAQGKKQRLSKKLRRKLQMWLWSQTFCPVLYAWNDLGSRFWPRYVKVGSCFSKRSCSVPEGMVCKPSKSVHLTVLRWRCQRRGGQRCGWIPIQYPIISECKCSC
For the molecule B3, the “iPAM maturation” value with BMP4 is “upregulation of several PSM specific markers; also recorded: promoting induced paraxial mesoderm progenitors (iPAM) maturation”. Also, in the assay on BMP4 (added to differentiation medium with Rspo3 and DMSO, day 3 and 4), the “BMP4 expression in Msgn1-YFP+ cells” value is listed as “effectively repress BMP4 expression; also recorded: represses BMP4 expression”. For the same molecule, in the assay on Msgn1RepV mouse ES cells (added to differentiation medium), the “total number of Msgn1-YFP+ iPAM cells or total cell number in culture” value is on record as “does not change the total number”.

B4: R-spondin3: secreted protein of the R-spondin family that activates the Wnt signaling pathway; recombinant (protein, UniProt Q9BXY4 22-272, looked up)
R-spondin-3: QNASRGRRQRRMHPNVSQGCQGGCATCSDYNGCLSCKPRLFFALERIGMKQIGVCLSSCPSGYYGTRYPDINKCTKCKADCDTCFNKNFCTKCKSGFYLHLGKCLDNCPEGLEANNHTMECVSIVHCEVSEWNPWSPCTKKGKTCGFKRGTETRVREIIQHPSAKGNLCPPTNETRKCTVQRKKCQKGERGKKGRERKRKKPNKGESKEAIPDSKSLESSKEIPEQRENKQQQKKRKVQDKQKSVSVSTVH
As for B4, the “expression of paraxial mesoderm progenitor markers (qRT-PCR)” value in the assay on HUES1 cells was “induction of the paraxial mesoderm progenitor markers, Brachyury, PDGFRa, Tbx6 and Msgn1 is observed; also recorded: Strong activation of Msgn1 and Tbx6”. Moreover, the “luciferase from BAT-luc canonical Wnt reporter” value in the assay with canonical Wnt signaling was “strongly activated”; in the assay on canonical Wnt signaling (listed as Rspo3), “strongly activates the canonical Wnt response”. The “induction of YFP+ cells” value with Msgn1RepV mouse ES cells (10 ng/mL, both FBS based and KSR based medium, 4 days) was “up to 70%”. In addition, the “effect on number of YFP+ cells” value in the assay with Msgn1RepV mouse ES cells (15% FBS medium) is on record as “significantly increase the number of YFP+ cells”. In the assay with Msgn1RepV mouse ES cells (day 4 of differentiation, 15% FBS medium, R-spondin3 10 ng/mL), the “YFP+ population of the total population” value was “more than 70%”.

B5: Follistatin: recombinant protein BMP inhibitor (protein, UniProt P19883 30-344, looked up)
Follistatin: GNCWLRQAKNGRCQVLYKTELSKEECCSTGRLSTSWTEEDVNDNTLFKWMIFNGGAPNCIPCKETCENVDCGPGKKCRMNKKNKPRCVCAPDCSNITWKGPVCGLDGKTYRNECALLKARCKEQPELEVQYQGRCKKTCRDVFCPGSSTCVVDQTNNAYCVTCNRICPEPASSEQYLCGNDGVTYSSACHLRKATCLLGRSIGLAYEGKCIKAKSCEDIQCTGGKKCLWDFKVGRGRCSLCDELCPDSKSDEPVCASDNATYASECAMKEAACSSGVLLEVKHSGSCNSISEDTEEEEEDEDQDYSFPISSILEW
As to B5, in the assay with BMP4, the “iPAM maturation” value was “promoting induced paraxial mesoderm progenitors (iPAM) maturation”.
